Common to all, as to assay: SPR; Biacore X100; CagA immobilised on CM5 chip by amine coupling, SHP2 or SHP2/SH2 as analyte; KD from Scatchard plots; three independent measurements
For orientation: In SPR one partner is held on a chip, and binding of the other changes the refractive index at the surface.

Assay [1] has as its target pY-CagA(C1)-His (tyrosine-phosphorylated Western CagA with one EPIYA-C segment) (Helicobacter pylori).
Assay [2] deals with pY-CagA(C2)-His (tyrosine-phosphorylated Western CagA with two EPIYA-C segments) (Helicobacter pylori).
For assay [3], the target named is pY-CagA(C3)-His (tyrosine-phosphorylated Western CagA with three EPIYA-C segments) (Helicobacter pylori).
Assay [4] has as its target pY-CagA(C5)-His (tyrosine-phosphorylated Western CagA with five EPIYA-C segments) (Helicobacter pylori).
The target in assay [5] is pY-CagA(C8)-His (tyrosine-phosphorylated Western CagA with eight EPIYA-C segments) (Helicobacter pylori).

From PMC4623810 come the findings set out here.

Broadly, the Kd is the equilibrium constant for the complex coming apart.

B1: SHP2/SH2 (recombinant N-terminal SHP2 fragment containing two SH2 domains, analyte of the SPR) (domain or fragment)
chain: MTSRRWFHPNITGVEAENLLLTRGVDGSFLARPSKSNPGDFTLSVRRNGAVTHIKIQNTGDYYDLYGGEKFATLAELVQYYMEHHGQLKEKNGDVIELKYPLNCADPTSERWFHGHLSGKEAEKLLTEKGKHGSFLVRESQSHPGDFVLSVRTGDDKGESNDGKSKVTHVMIRCQELKYDVGGGERFDSLTDLVEHYKKNPMVETLGTVLQLKQPLNTTR
In the case of B1, the Kd in assay [1] came out at 24100 nM; in assay [2], 208 nM; in assay [3], 123 nM; in assay [4], 77.8 nM; in assay [5] it was 40.1 nM.

B2: full-length SHP2 (recombinant) (enzyme)
chain: MTSRRWFHPNITGVEAENLLLTRGVDGSFLARPSKSNPGDFTLSVRRNGAVTHIKIQNTGDYYDLYGGEKFATLAELVQYYMEHHGQLKEKNGDVIELKYPLNCADPTSERWFHGHLSGKEAEKLLTEKGKHGSFLVRESQSHPGDFVLSVRTGDDKGESNDGKSKVTHVMIRCQELKYDVGGGERFDSLTDLVEHYKKNPMVETLGTVLQLKQPLNTTRINAAEIESRVRELSKLAETTDKVKQGFWEEFETLQQQECKLLYSRKEGQRQENKNKNRYKNILPFDHTRVVLHDGDPNEPVSDYINANIIMPEFETKCNNSKPKKSYIATQGCLQNTVNDFWRMVFQENSRVIVMTTKEVERGKSKCVKYWPDEYALKEYGVMRVRNVKESAAHDYTLRELKLSKVGQGNTERTVWQYHFRTWPDHGVPSDPGGVLDFLEEVHHKQESIMDAGPVVVHCSAGIGRTGTFIVIDILIDIIREKGVDCDIDVPKTIQMVRSQRSGMVQTEAQYRFIYMAVQHYIETLQRRIEEEQKSKRKGHEYTNIKYSLADQTSGDQSPLPPCTPTPPCAEMREDSARVYENVGLMQQQKSFR
B2 came in with a Kd in assay [2] of 369 nM.
